In doi:10.1101/2023.07.25.550451 (bioRxiv, 2023):
Like-named read-outs stand apart in the source and are kept apart here. * marks the point of attachment. Biotin = O=C1N[C@H]2[C@H](CS[C@H]2CCCCC(=O)*)N1

B1: GST-FAM104A isoform 1 (natural protein)
chain: not shown
B2: biotinylated peptide spanning the conserved C-terminal alpha-helix and flanking residues of FAM104A (C180-G203 of isoform 1) (peptide)
peptide: Biotin-CQGLYFHINQTLREAHFHSLQHRG-OH
SMILES: CC[C@H](C)[C@H](NC(=O)[C@H](Cc1c[nH]cn1)NC(=O)[C@H](Cc1ccccc1)NC(=O)[C@H](Cc1ccc(O)cc1)NC(=O)[C@H](CC(C)C)NC(=O)CNC(=O)[C@H](CCC(N)=O)NC(=O)[C@H](CS)NC(=O)CCCC[C@@H]1SC[C@@H]2NC(=O)N[C@@H]21)C(=O)N[C@@H](CC(N)=O)C(=O)N[C@@H](CCC(N)=O)C(=O)N[C@H](C(=O)N[C@@H](CC(C)C)C(=O)N[C@@H](CCCNC(=N)N)C(=O)N[C@@H](CCC(=O)O)C(=O)N[C@@H](C)C(=O)N[C@@H](Cc1c[nH]cn1)C(=O)N[C@@H](Cc1ccccc1)C(=O)N[C@@H](Cc1c[nH]cn1)C(=O)N[C@@H](CO)C(=O)N[C@@H](CC(C)C)C(=O)N[C@@H](CCC(N)=O)C(=O)N[C@@H](Cc1c[nH]cn1)C(=O)N[C@@H](CCCNC(=N)N)C(=O)NCC(=O)O)[C@@H](C)O
B3: GST-FAM104A isoform 2 (natural protein)
chain: not shown

What was measured:
[1] = molecular target: T1, p97, wild-type, full-length (recombinant) (human, UniProt P55072 1-806); assay: pull-down
[2] = molecular target: T1, p97, wild-type, full-length …; assay: pull-down; remark: listed apart in the source

T1 sequence (P55072 whole entry): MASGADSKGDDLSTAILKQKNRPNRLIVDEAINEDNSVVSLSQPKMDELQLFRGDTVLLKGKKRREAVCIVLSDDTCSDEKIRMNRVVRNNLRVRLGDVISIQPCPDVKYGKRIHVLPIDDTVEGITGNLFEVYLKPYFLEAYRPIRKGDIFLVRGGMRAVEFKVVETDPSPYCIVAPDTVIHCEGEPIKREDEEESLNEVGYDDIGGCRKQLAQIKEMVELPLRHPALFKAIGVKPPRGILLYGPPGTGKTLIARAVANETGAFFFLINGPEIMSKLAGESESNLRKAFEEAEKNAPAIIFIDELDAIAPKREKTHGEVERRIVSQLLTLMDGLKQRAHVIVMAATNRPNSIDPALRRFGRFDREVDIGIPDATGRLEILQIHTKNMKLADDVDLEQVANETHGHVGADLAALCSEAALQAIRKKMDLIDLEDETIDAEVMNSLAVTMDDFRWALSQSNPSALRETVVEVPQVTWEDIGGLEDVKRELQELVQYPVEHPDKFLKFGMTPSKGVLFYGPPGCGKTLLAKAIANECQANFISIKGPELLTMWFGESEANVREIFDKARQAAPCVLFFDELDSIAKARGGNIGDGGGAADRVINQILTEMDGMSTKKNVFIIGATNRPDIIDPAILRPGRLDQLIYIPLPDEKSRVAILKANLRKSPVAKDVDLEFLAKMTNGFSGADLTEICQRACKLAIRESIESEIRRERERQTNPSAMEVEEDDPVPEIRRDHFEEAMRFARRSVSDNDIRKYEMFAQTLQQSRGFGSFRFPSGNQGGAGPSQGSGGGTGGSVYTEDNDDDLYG

Binder	binding result [1]	binding result [2]
B1	binds	–
B2	–	binds
B3	binds	–
